Among the data in PMC6821020, “Arabidopsis thaliana alternative dehydrogenases: a potential therapy for mitochondrial complex I deficiency? Perspectives and pitfalls” (Orphanet Journal of Rare Diseases, 2019) are Km values, retold here.

Substrate in this series: NC(=O)C1=CN([C@@H]2O[C@H](COP(=O)(O)OP(=O)(O)OC[C@H]3O[C@@H](n4cnc5c(N)ncnc54)[C@H](O)[C@@H]3O)[C@@H](O)[C@H]2O)C=CC1
The experiment in a line: cells, lysate or membranes. Type of series: biochemical, Arabidopsis thaliana. The following applies: rotenone-resistant activity in AtNDA2-transfected control fibroblasts, DCQ 50 μM, rotenone 8 μM, KCN 650 μM, 10 mM KH2PO4 pH 7.2, BSA, 37 °C.

B1: AtNDA2 (Arabidopsis thaliana) (protein)
chain: SPAKIPNDVDRSQYSGLPPTREGEKPRVVVLGSGWAGCRLMKGIDTNLYDVVCVSPRNHMVFTPLLASTCVGTLEFRSVAEPISRIQPAISREPGSFFFLANCSRLDADAHEVHCETLTDGLNTLKPWKFKIAYDKLVIASGAEASTFGIHGVMENAIFLREVHHAQEIRRKLLLNLMLSDTPGISKEEKRRLLHCVVVGGGPTGVEFSGELSDFIMKDVRQRYAHVKDDIHVTLIEARDILSSFDDRLRRYAIKQLNKSGVRFVRGIVKDVQSQKLILDDGTEVPYGLLVWSTGVGPSPFVRSLGLPKDPTGRIGIDEWMRVPSVQDVFAIGDCSGYLETTGKPTLPALAQVAEREGKYLANLLNAIGKGNGGRANSAKEIELGVPFVYKHLGSMATIGRYKALVDLRESKDAKGISMTGFVSWFIWRSAYLTRVISWRNRFYVAINWFTTFVFGRDISRI
notes: lentiviral expression in human control fibroblasts (NHDF); permeabilised cells
On to B1, for which the Km is 9.7 ± 3.3 µM.

The term Km denotes the substrate concentration at which the rate is half of its maximum.
